In patent US8153410B2, “Alternate morpheein forms of allosteric proteins as a target for the development of bioactive molecules” (Fox Chase Cancer Center, priority 2003, dated 2012):
Read-outs that look alike come from different tables or passages of the source. Marks after values point to notes of the source that are not given here.

T1: pea PBGS (Pisum sativum, UniProt P30124)
T1 sequence (P30124 69-398 limits assumed): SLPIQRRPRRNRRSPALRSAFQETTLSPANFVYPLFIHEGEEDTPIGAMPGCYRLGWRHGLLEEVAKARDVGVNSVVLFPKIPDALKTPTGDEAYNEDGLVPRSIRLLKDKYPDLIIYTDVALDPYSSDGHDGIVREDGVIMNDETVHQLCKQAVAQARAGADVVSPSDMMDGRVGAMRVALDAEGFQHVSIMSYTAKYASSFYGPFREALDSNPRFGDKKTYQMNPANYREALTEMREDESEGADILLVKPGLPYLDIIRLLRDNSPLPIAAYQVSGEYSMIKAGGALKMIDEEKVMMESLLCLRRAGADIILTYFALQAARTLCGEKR

T2: human PBGS (Homo sapiens, UniProt P13716, C162A/K59N)
T2 construct: made in house; host or cells: E. coli BLR(DE3)
T2 sequence (P13716 1-330 K59N/C162A): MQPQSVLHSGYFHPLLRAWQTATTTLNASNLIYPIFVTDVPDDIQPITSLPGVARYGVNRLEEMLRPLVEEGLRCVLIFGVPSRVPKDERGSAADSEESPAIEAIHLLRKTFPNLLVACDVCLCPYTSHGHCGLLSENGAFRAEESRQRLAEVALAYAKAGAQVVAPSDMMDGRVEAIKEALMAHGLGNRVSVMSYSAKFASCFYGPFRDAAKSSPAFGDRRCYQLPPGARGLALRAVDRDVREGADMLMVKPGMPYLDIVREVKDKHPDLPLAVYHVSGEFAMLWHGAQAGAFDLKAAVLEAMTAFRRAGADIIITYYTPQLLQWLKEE


Assays:
pea PBGS = target: T1, pea PBGS; settings: read-out: Kd for the allosteric magnesium of pea PBGS; cited from earlier work
human PBGS [1] = target: T2, human PBGS; experiment: kinetic characterization (Km, Vmax, specific activity) of human PBGS variants with substrate ALA; assay type: biochemical; settings: pH 9; Table 1; hexamer component
Description: (§1) All kinetic determinations were carried out in 0.1 M bis-tris propane, 10 mM 2-mercaptoethanol, 10 μM Zn. For the pH rate profiles, the reported pH reflects the assay pH after the addition of 10 mM ALA-HCl. For Km and Vmax determinations, concentrations of ALA were 10 μM, 30 μM, 100 μM, 300 μM, 1 mM, 3 mM, and 10 mM and were each done in duplicate. […] All assays were at 37° C. for a fixed time using Ehrlich's reagent to determine porphobilinogen formed.
(§2) The kinetic parameters Km and Vmax of the S300 purified pools were determined at pH 7 and at pH 9 (Table 3 contains data for hetero-hexamers (Pool I) initially at 70% Leu and 30% Phe and for hetero-octamers (Pool II) initially at 30% Leu and 70% Phe). […] With the exception of the trace amount of octamer present for Pool I that is detected at pH 9, all the kinetic values are well determined (see Table 3). […] The factors that govern equilibration of human PBGS heteromers under assay conditions remain to be elucidated.
(§3) Km1 and Km2 (both mM) are interpreted as the Km for the octamer and hexamer, respectively.
(§4) Using freshly prepared hetero-oligomers of WT+F12L, the Pool I and Pool II proteins were separated chromatographically and then dialyzed for 24 hours at pH 7 in the presence of 10 mM ALA. Following dialysis, the re-equilibrated hetero-oligomers were again separated into their hexameric and octameric components by chromatography on a Mono-Q column. The separated proteins were characterized for their specific activity and for their Phe12 and Leu12 content. The specific activity of hexamer and octamer are dramatically different with hexamer showing optimal activity at pH 9 and the activity of octamer is maximal at pH 7 (Table 4). […] Following chromatographic separation, the proteins were called Pool I hexamer, Pool I octamer, Pool II hexamer, and Pool II octamer and are described below. The peak to elute first on the Mono-Q column runs comparably to the F12L mutant, which is the hexamer. The hexameric structure is substantiated by native gel electrophoresis and by specific activity at pH 7 and pH 9 (FIG. 26A and Table 4). The second peak to elute runs comparably to the WT human PBGS, which is the octamer. The octameric structure is substantiated by native gel electrophoresis and specific activity at pH 7 and pH 9 (FIG. 26A and Table 4). Consistent with the documented characteristics of human PBGS hexamers and octamers, Pool I hexamer and Pool II hexamer have very low activity at pH 7 and considerable activity at pH 9. Pool I octamer and Pool II octamer both show substantially higher activity at pH 7 than at pH 9.

human PBGS [2] = experiment: as above; assay type: biochemical
Description: as §1, §2, §3, §4

human PBGS [3] = experiment: temperature dependence (Arrhenius plots) of hetero-hexamer to hetero-octamer conversion and of substrate turnover; assay type: biochemical; settings: pH 7.0, 10 mM ALA-HCl
Source text: To determine the free energy of activation for the conversion of hetero-hexamers to hetero-octamers, we took advantage of the dramatic differences in the activity of octameric (high activity) and hexameric (low activity) human PBGS at pH 7.0 (3, 5). Because of this difference, the transition from purified hetero-hexamers to a mixture of hetero-hexamers and hetero-octamers under turnover conditions is accompanied by a progressive increase in the specific activity; this process was monitored at several temperatures. Starting with purified hetero-hexamers, (FIG. 34a) the specific activity increased, which is fit to a first-order exponential as exemplified in FIG. 35b (5). […] The time-courses for conversion of hetero-hexamer to hetero-octamer were monitored by periodically removing aliquots from the incubations and immediately quantifying porphobilinogen using Ehrlich's reagent and calculating specific activities based on the total incubation time. […] An activation energy for hetero-hexamer to hetero-octamer conversion (Ea=63±5 kJ/mol) was determined from the slope of the plot. […] However, we previously monitored this process at 5 μg/ml and 0.9 mg/ml, two widely different enzyme concentrations, by specific activity increase and dynamic light scattering respectively. […]

Row | Molecule | Kd (pea PBGS) [µM] | Km2 (human PBGS [1]) | Vmax2 (human PBGS [1]) [µM/h/mg] | Specific activities before and after substrate induced disproportionation (human PBGS [2]; pH 7) [µmol/h/mg] | Km1 (human PBGS [2]; pH 7, Table 1) [mM] | Vmax1 (human PBGS [2]; pH 7, Table 1) | Vmax1 (human PBGS [2]; pH 7, Table 3) [µmol/h/mg] | Km (human PBGS [2]; pH 7, Table 3, read-out: Km1 (Km for the octamer)) [µM] | Specific activities before and after substrate induced disproportionation (human PBGS [2]; pH 9) [µmol/h/mg] | Km1 (human PBGS [2]; pH 9, Table 1) [mM] | Vmax1 (human PBGS [2]; pH 9, Table 1) | Vmax1 (human PBGS [2]; pH 9, Table 3) [µmol/h/mg] | Vmax2 (human PBGS [2]; pH 9, Table 3) [µmol/h/mg] | Km (human PBGS [2]; pH 9, Table 3, read-out: Km1 (Km for the octamer)) [µM] | Km (human PBGS [2]; pH 9, Table 3, read-out: Km2 (Km for the hexamer)) [µM] | activation energy for substrate turnover (human PBGS [3]) [kcal/mol]
1 | [Mg+2] [magnesium] | 2500 |  |  |  |  |  |  |  |  |  |  |  |  |  |  | 
2 | WT: wild type human PBGS (parent N59/C162A), octameric, expressed in E. coli (protein) MQPQSVLHSGYFHPLLRAWQTATTTLNASNLIYPIFVTDVPDDIQPITSLPGVARYGVNRLEEMLRPLVEEGLRCVLIFGVPSRVPKDERGSAADSEESPAIEAIHLLRKTFPNLLVACDVCLCPYTSHGHCGLLSENGAFRAEESRQRLAEVALAYAKAGAQVVAPSDMMDGRVEAIKEALMAHGLGNRVSVMSYSAKFASCFYGPFRDAAKSSPAFGDRRCYQLPPGARGLALRAVDRDVREGADMLMVKPGMPYLDIVREVKDKHPDLPLAVYHVSGEFAMLWHGAQAGAFDLKAAVLEAMTAFRRAGADIIITYYTPQLLQWLKEE |  | 4.46 ± 0.80^a mM | 6.67 | 56.9 | 0.25 ± 0.01 | 55.5 ± 0.2 | 55.5 ± 0.2 | 250 ± 10 | 13.1 | 0.015 ± 0.001 | 8.16 ± 0.13 | 8.16 ± 0.13 | 6.67 ± 0.36 | 15 | 4460 ± 800 | 14.8 ± 0.24
